Results taken from the supplement of paper PMC9170038.

Tested on: MS2 coat protein
Assay: apparent KD of MS2 coat protein; designed switch direction (-1 OFF switch, 1 ON switch): -1; higher = weaker reporter binding
Procedure, shortened: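 Transcription of designed RNA switches on Illumina chips was done by stalled E. coli RNA polymerase. SNAP-549-labelled MS2 coat protein was then titrated in doubling steps from 0.7 or 1.5 nM to 3 µM, with steps of 0.8–1.5 h at the lowest and 10–20 min at the highest concentration. The per-design median over clusters of curve-fitted normalised fluorescence is reported as apparent KD.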

[1] = Eterna round: R95, input ligand: FMN 200 uM
[2] = Eterna round: R95, input ligand: microRNA oligo, concentration not stated
[3] = Eterna round: R95, input ligand: none
[4] = input ligand: microRNA oligo, concentration not stated

Row | Sequence | apparent KD of MS2 coat protein (input ligand: FMN 200 uM) [nM] | apparent KD of MS2 coat protein (input ligand: none) [nM] | apparent KD of MS2 coat protein [1] [nM] | apparent KD of MS2 coat protein [2] [nM] | apparent KD of MS2 coat protein [3] [nM] | apparent KD of MS2 coat protein [4] [nM]
1 | UCAUGUCCGGAGGAUAUGGCGCCCGUAAGGGCGCCAGAAGGCCGGACAUGAGGAUCACCCAUGUCGGCCUUCCC (Eterna round: R97, puzzle: Exclusion 6) | 22.1 | 28.4 | – | – | – | –
2 | UCAUGUUUAGAGGAUAUGAUUACUCUAGAGUGAUCAGAAGGCUAGACAUGAGGAUCACCCAUGUCAGAACAUGG [Exclusion 6 - B - 17:c] (puzzle: Exclusion 6) | – | – | 27.5 | 21.5 | 29.1 | –
3 | UCAUGUUUAGAGGAUAUGAUUACUCUAGAGUGAUCAGAAGGCUAGACAUGAGGAUCACCCAUGUCAUAACAUGA [Exclusion 6 - B - 16:a] (puzzle: Exclusion 6) | – | – | 56.3 | 85.7 | 127 | –
4 | UCAUGUUUAGAGGAUAUGAUUACUUUUGAGUAAUCAGAAGGCUAGACAUGAGGAUCACCCAUGUCAUAACAUGA [Exclusion 6 - B - 15:d] (Eterna round: R96, puzzle: Exclusion 6) | 341 | 242 | – | – | – | 75.9
5 | UCAUGUUUAGAGGAUAUGAUUACUUUUGAGUAAUCAGAAGGCUAGACAUGAGGAUCACCCAUGUCAUAACAUGA [Exclusion 6 - B - 15:d] (puzzle: Exclusion 6) | – | – | – | 71.5 | – | –
6 | UCCAAGUUUGUAGGAUAUACUCUCCUUUGGAGAGUAGAAGGACAUGAGGAUCACCCAUGUUGUAUAAAUUUGGGAUGUUCCUCG [random3] (Eterna round: R96, puzzle: Exclusion NG 1) | 122 | 91.8 | – | – | – | 51.3
7 | UCCACAUGAGGAUCACCCAUGUAAGGUGAGUAAAAGAAGAGGCAGGAUAUUGAAGCGACCUCGCCCAAGAAGGGCCUCACCAAA [Eternabot solution 11] (Eterna round: R96, puzzle: Exclusion NG 3) | 72.2 | 60.6 | – | – | – | 44.8
8 | UCCCAGCUAGGAUAUACAUGAGGAUCACCCAUGUCGAUCCACGGCACCCGAGUAUUGAGUAGAAGGAGUCAGGA [Eternabot (L2) Solution 69] (Eterna round: R97, puzzle: Exclusion 3) | 25.1 | 23.1 | – | – | – | –
9 | UCCUCACAUGAGGAUCACCCAUGUUAGGAUAUCUUAUAGAGCUUGAGACAGUUCUUUAAGAGAAGGAACUGGGC [Exclusion 1 (MOD2.2 of Edarti)] (Eterna round: R97, puzzle: Exclusion 1) | 120 | 115 | – | – | – | –
10 | UCCUCACAUGAGGAUCACCCAUGUUAGGAUAUUUAAUAGCGCGAAAGACAGUUCUGUAAGAGAAGGAACUGGGC [Edarti] (Eterna round: R97, puzzle: Exclusion 1) | 14.6 | 15 | – | – | – | –
11 | UCCUCACUUGAGGAUCACCCAAGUCAGGAUAUUCACUGAACUGCGUAGCAGUUCGGCCGAAGAAGGGAUUCGGG [Lacequla] (Eterna round: R97, puzzle: Exclusion 1) | 54.8 | 107 | – | – | – | –
12 | UCCUCGUCAGGAUAUCCACGGAAUAGCGGGAUACCGAGCGUGGAGAAGGGACAUGAGGAUCACCCAUGUAAAAU [Edlare] (puzzle: Exclusion 4) | – | – | – | 24.9 | – | –
13 | UCCUUACUGGUCAGGAUAUACAGUCGCGGGUGGGUGUAGAAGGGACAUGAGGAUCACCCAUGUACGUUACAUCC [alecazam54h] (Eterna round: R97, puzzle: Brourd's mod of Exclusion 4) | 19.7 | 19.9 | – | – | – | –
14 | UCGACGUCGUCAGGAUAUAGUUUUAAUGUCAUGCUUUUGUUCGUACAUGAGGAUCACCCAUGUGGCUAGAAGGGACUAAAGAUU [JR_ExcNG2_Sub014] (Eterna round: R96, puzzle: Exclusion NG 2) | 22.9 | 18.8 | – | – | – | 27
15 | UCGCUCCGUGUAGGAUAUCGCCGUUCCACUCGGCGAGAAGGACAUGAGGAUCACCCAUGUAUGUUAUUAUCACGUGUGGCGCGC [Design 53] (Eterna round: R96, puzzle: Exclusion NG 1) | 32 | 18.1 | – | – | – | 16.5
16 | UCGCUCCGUGUAGGAUAUCGCCGUUCUACUCGGCGAGAAGGACAUGAGGAUCACCCAUGUAUGUUAUUAUCACGUGUGGCGCGC [Design 54] (Eterna round: R96, puzzle: Exclusion NG 1) | – | – | – | – | – | 14.2
17 | UCGGCGCGAGGAUAUACGGUUGCUUUUUAGGGUCGUGGCGUACAUGAGGAUCACCCAUGUAGAAGGCGCGCCGC [Apr-15 SS2-30] (puzzle: Exclusion 2) | – | – | – | 13.8 | – | –

Row | Sequence | apparent KD of MS2 coat protein (input ligand: FMN 200 uM) [nM] | apparent KD of MS2 coat protein (input ligand: none) [nM] | apparent KD of MS2 coat protein [1] [nM] | apparent KD of MS2 coat protein [2] [nM] | apparent KD of MS2 coat protein [3] [nM] | apparent KD of MS2 coat protein [4] [nM]
18 | UCGGCGCGAGGAUAUACGUUUGCGCGUUUUCGUUUGCGCGUACAUGAGGAUCACCCAUGUAGAAGGCGCGCCGC [Apr-15 SS2-14] (puzzle: Exclusion 2) | – | – | – | 13.2 | – | –
19 | UCGGCGCGAGGAUAUGCGGUUCCUGCUUCGGGCCGGAGCGUACAUGAGGAUCACCCAUGUAGAAGGCGCGCCGC [Apr-15 SS2-38] (puzzle: Exclusion 2) | – | – | – | 12.1 | – | –
20 | UCUAUUUUGCGAGGAUAUCGACCAUUCCUCUUUACAUGAGGAUCACCCAUGUUCUUUUUCUACAACGAGAAGGCGCUCUAAGUU [JR_ExcNG2_Sub061] (Eterna round: R96, puzzle: Exclusion NG 2) | 71.9 | 59.1 | – | – | – | 65
21 | UCUCCCUGGCAAGGAUAUCCUGUGCGGUUCCGGCUCGUGUCUGUUACAUGAGGAUCACCCAUGUGGGAGAAGGUGCCUGUGGCU [Design 92] (Eterna round: R96, puzzle: Exclusion NG 2) | 346 | 143 | – | – | – | 93.7
22 | UCUCGCGGGCAAGGAUAUCCCACGCUGUUCUGGCCCGUGUCUGUUACAUGAGGAUCACCCAUGUGGGAGAAGGUGCACCAGGGC [Design 43] (Eterna round: R96, puzzle: Exclusion NG 2) | 30.9 | 29.4 | – | – | – | 16.8
23 | UCUCGGUAAGGAUAUGCGCCGGGAUGAAGAUCCCGAAGCAUGCAGAAGGUACAUGAGGAUCACCCAUGUCUGUU [Eternabot (L1) Solution 76] (Eterna round: R97, puzzle: Exclusion 4) | 47.2 | 20.5 | – | – | – | –
24 | UCUCUUGGGCAAGGAUAUCCUGCGCGGUUCCGGUUCGUGUCUGUCACAUGAGGAUCACCCAUGUGGGAGAAGGUGCCUGCGGUG [Design 75] (Eterna round: R96, puzzle: Exclusion NG 2) | 32.5 | 17.3 | – | – | – | 15.8
25 | UCUGGAGCAGGAUAUAUAUGACGUGCUUCGGCACGAAGGUCACAUGAGGAUCACCCAUGUAGAAGGGCUCCAGA [E2/9-D2] (Eterna round: R97, puzzle: Exclusion 2) | 344 | 43.6 | – | – | – | –
26 | UCUUAUCUAUAGGAUAUAGGAGCAGAAUUGCGAUUAGAAGGAUGGACAUGAGGAUCACCCAUGUGCAUGGGCUU [EX6 B.6] (Eterna round: R97, puzzle: Exclusion 6) | 17.9 | 30.6 | – | – | – | –
27 | UCUUUGUUUGUGAGGAUAUCGGUGGAAUGGAUUGUCGAGAAGGCACAUGAGGAUCACCCAUGUGUGGGACAGCA [JR_BMEx4_Sub026] (Eterna round: R97, puzzle: Brourd's mod of Exclusion 4) | 24.3 | 22.3 | – | – | – | –
28 | UGAAGUAGAGGAUAUACGUGGAAAUAGAUUCAUGUAAAACUACAUGAGGAUCACCCAUGUAGAAGGCUAUAGAU [JR_Ex2_Sub072] (Eterna round: R97, puzzle: Exclusion 2) | 28.4 | 49 | – | – | – | –
29 | UGAGCUUACGCAGGAUAUGAGGAUCACCCAUAGAAGGAUAUCGAAAGAGAAGGUCUGAGGAUUACCCAGAAGGGCGUGGGCUCU [pwkr exNG2 2xF5 2xFMN.11] (Eterna round: R96, puzzle: Exclusion NG 2) | 1290 | 131 | – | – | – | 125
30 | UGAGCUUCAGGAUAUAUGUGGCGACCGUGAGGUCGAAGGUUACAUGAGGAUCACCCAUGUAGAAGGGAAGUUCU [Mat - Exclusion 2 - JL Mod - D19] (Eterna round: R97, puzzle: Exclusion 2) | 181 | 62.2 | – | – | – | –
31 | UGAGCUUGUGUGAGGAUAUUUCGAGUGAAAGCUUGAGAGAAGGCACAUGAGGAUCACCCAUGUAAGCGAGUUCG [-26.1, -24 kcal, A 28%, 1bis-1] (Eterna round: R97, puzzle: Brourd's mod of Exclusion 4) | 84.2 | 86.8 | – | – | – | –
32 | UGAGUGCUGCGAGGAUAUACAUGAGGAUCACCCAUGUGGAUGUCUGAGGCAAAGCCUCAGACAAUGUAGAAGGCGCAGUACUCU [Mat - Exclusion NG 2 - Mod of JL - D55] (Eterna round: R96, puzzle: Exclusion NG 2) | 96.1 | 25.2 | – | – | – | 16.6
33 | UGAGUGCUGCGAGGAUAUACAUGAGGAUCACCCAUGUGGUCCUGUGAGGCAAAGCCUCACAGGAUGUAGAAGGCGCAGUACUCU [Mat - Exclusion NG 2 - Mod of JL - D45] (Eterna round: R96, puzzle: Exclusion NG 2) | 95.2 | 22.5 | – | – | – | 13.7
34 | UGAGUGCUGCGAGGAUAUACAUGAGGAUCACCCAUGUUUACCUGUGAGGCUUUGCCUCACAGGUUGUAGAAGGCGCAGUACUCU [JL ENG2 1.15] (Eterna round: R96, puzzle: Exclusion NG 2) | 10.2 | 12.4 | – | – | – | 9.11
